Holding throughout (conditions): glycan lost; control: wild type
Data set [1] in a line: anti-FLAG surface immunofluorescence, non-permeabilised HeLa.
Data set [2] can be described thus: cell surface biotinylation, streptavidin pulldown, HeLa.
A short description of data set [3]: co-immunostaining with ER marker HA-PDIA4.

The text below walks through data of publication PMC8997467.

For “Neuronal growth regulator 1 (NEGR1): N155Q”, in data set [1], the “localisation_or_trafficking, percent_of_wt” value is “no change”. “Neuronal growth regulator 1 (NEGR1): N73Q”: the “localisation_or_trafficking, percent_of_wt” value in data set [1] is recorded as “no change”.

As to “Neuronal growth regulator 1 (NEGR1): 1MT (N307Q)”, the “localisation_or_trafficking, percent_of_wt” value in data set [2] is given as “no change”. On to “Neuronal growth regulator 1 (NEGR1): N294Q”, for which the “localisation_or_trafficking, percent_of_wt” value in data set [1] is “no change”. Take “Neuronal growth regulator 1 (NEGR1): N275Q”: the “localisation_or_trafficking, percent_of_wt” value in data set [1] is listed as “no change”.

On to “Neuronal growth regulator 1 (NEGR1): N286Q”, for which the “localisation_or_trafficking, percent_of_wt” value in data set [1] is “no change”. On the same count and under the same terms, the same measure for “Neuronal growth regulator 1 (NEGR1): N307Q”: “no change”. As for “Neuronal growth regulator 1 (NEGR1): N73Q/N155Q”, the localisation_or_trafficking result in data set [3] is reported as “changes”. In addition, the “localisation_or_trafficking, percent_of_wt” value in data set [1] and in data set [2] was “abolishes” in each case.
